Source: publication PMC3590988 (The EMBO Journal, 2013)
Changes are numbered by the printed parent chain. Numbers in names are those of the source. Blank lines part the entries; values can stand above or below the binder they belong to.

How the values were obtained:
Test in all cases: BLI
[1] = molecular target: T1, ScWpl1^259–647 K376Q K377Q K382Q K383Q (S. cerevisiae, UniProt Q99359 259-647, K376Q | K377Q | K382Q | K383Q)
T1 sequence (looked up): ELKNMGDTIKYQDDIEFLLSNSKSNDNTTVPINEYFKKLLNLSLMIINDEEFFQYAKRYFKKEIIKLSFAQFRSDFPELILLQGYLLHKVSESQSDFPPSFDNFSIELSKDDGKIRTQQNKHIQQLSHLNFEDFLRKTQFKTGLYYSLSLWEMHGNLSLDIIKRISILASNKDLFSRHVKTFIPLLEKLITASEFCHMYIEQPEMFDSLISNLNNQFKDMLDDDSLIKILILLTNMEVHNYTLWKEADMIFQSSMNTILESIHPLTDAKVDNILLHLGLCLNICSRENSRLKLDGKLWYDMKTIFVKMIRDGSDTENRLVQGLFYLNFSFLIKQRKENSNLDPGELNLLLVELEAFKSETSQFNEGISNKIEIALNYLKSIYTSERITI

[2] = molecular target: T2, ScWpl1^259–647 N493E N622E (S. cerevisiae, UniProt Q99359 259-647, N493E | N622E)
T2 sequence (looked up): T1 sequence (looked up) with Q118K, Q119K, Q124K, Q125K, N235E, N364E

[3] = molecular target: T3, ScWpl1^259–647 N493A N622A L577R (S. cerevisiae, UniProt Q99359 259-647, N493A | N622A | L577R)
T3 sequence (looked up): T1 sequence (looked up) with Q118K, Q119K, Q124K, Q125K, N235A, L319R, N364A

[4] = molecular target: T4, ScWpl1^259–647 (Wapl domain of Saccharomyces cerevisiae Wpl1), wild type (S. cerevisiae, UniProt Q99359 259-647)
T4 sequence (looked up): T1 sequence (looked up) with Q118K, Q119K, Q124K, Q125K

[5] = molecular target: T5, ScWpl1^259–647 D271A D272A (S. cerevisiae, UniProt Q99359 259-647, D271A | D272A)
T5 sequence (looked up): T1 sequence (looked up) with D13A, D14A, Q118K, Q119K, Q124K, Q125K

[6] = molecular target: T6, ScWpl1^259–647 N493A N622A L532E (S. cerevisiae, UniProt Q99359 259-647, N493A | N622A | L532E)
T6 sequence (looked up): T1 sequence (looked up) with Q118K, Q119K, Q124K, Q125K, N235A, L274E, N364A

B1: GST-tagged ScSmc3 ATPase head (ScSmc3^AH), wild type (domain or fragment, S. cerevisiae)
chain: MYIKRVIIKGFKTYRNETIIDNFSPHQNVIIGSNGSGKSNFFAAIRFVLSDDYSNLKREERQGLIHQGSGGSVMSASVEIVFHDPDHSMILPSGVLSRGDDEVTIRRTVGLKKDDYQLNDRNVTKGDIVRMLETAGFSMNNPYNIVPQGKIVALTNAKDKERLQLLEDVVGAKSFEVKLKASLKKMEETESGGSGGKVSENFEAVFERLVPRGTAKLIIHRKNDNANDHDESIDVDMDAESNESQNGKDSEIMYTGVSISVSFNSKQNEQLHVEQLSGGQKTVCAIALILAIQMVDPASFYLFDEIDAALDKQYRTAVATLLKELSKNAQFICTTFRTDMLQVADKFFRVKYENKISTVIEVNREEAIGFIRGSNKFAEV
- Kd [1]: 200 nM
- koff [1]: 0.00056 s⁻¹
- kon [1]: 2800 M⁻¹ s⁻¹
- Kd [2]: 126 nM
- koff [2]: 0.000492 s⁻¹
- kon [2]: 3920 M⁻¹ s⁻¹
- Kd [3]: 77 nM
- koff [3]: 0.000428 s⁻¹
- kon [3]: 5540 M⁻¹ s⁻¹
- Kd [4]: 47 nM
- koff [4]: 0.000248 s⁻¹
- kon [4]: 5220 M⁻¹ s⁻¹
- Kd [5]: 167 nM
- koff [5]: 0.000395 s⁻¹
- kon [5]: 2370 M⁻¹ s⁻¹
- Kd [6]: 82 nM
- koff [6]: 0.000344 s⁻¹
- kon [6]: 4200 M⁻¹ s⁻¹

B4: GST-tagged ScSmc3^AH L163D L166D (domain or fragment, S. cerevisiae)
chain: B1 chain with L163D, L166D
- Kd [4]: 102 nM
- koff [4]: 0.000597 s⁻¹
- kon [4]: 5880 M⁻¹ s⁻¹

Now from value to binder:

- Kd [4]: 104 nM
- koff [4]: 0.000497 s⁻¹
- kon [4]: 4770 M⁻¹ s⁻¹
B2: GST-tagged ScSmc3^AH L163A L166A D168A (domain or fragment, S. cerevisiae)
chain: B1 chain with L163A, L166A, D168A

- Kd [4]: 88 nM
- koff [4]: 0.000431 s⁻¹
- kon [4]: 4880 M⁻¹ s⁻¹
B3: GST-tagged ScSmc3^AH K112N K113N (domain or fragment, S. cerevisiae)
chain: B1 chain with K112N, K113N
